# ± gives the uncertainty stated by the source.
# System: HEK293T
# Experiment: plasma membrane surface immunostaining intensity (anti-HA, deep receptor scanning) (arbitrary fluorescence units); higher = higher plasma membrane expression
# Conditions: GPCR class: A
row,Sequence,plasma membrane surface immunostaining intensity
1,MEGALAANWSAEAANASAAPPGAEGNRTAGPPRRNEALARVEVAVLCLILLLALSGNACVLLALRTTRQKHSRLFFFMKHLSIADLVVAVFQVLPQLLWDITFRFYGPDLLCRLVKYLQVVGMFASTYLLLLMSLDRCLAICQPLRSLRRRTDRLAVLATWLGCLVASAPQVHIFSLREVADGVFDCWAVFIQPWGPKAYITWITLAVYIVPVIVLAACYGLISFKIWQNLRLKTAAAAAAEAPEGAAAGDGGRVALARVSSVKLISKAKIRTVKMTFIIVLAFIVCWTPFFFVQMWSVWDANAPKEASAFIIVMLLASLNSCCNPWIYMLFTGHLFHELVQRFLCCSASYLKGRRLGETSASKKSNSSSFVLSHRSSSQRSCSQPSTA [OXTR],5390 ± 230
2,MRWLWPLAVSLAVILAVGLSRVSGGAPLHLGRHRAETQEQQSRSKRGTEDEEAKGVQQYVPEEWAEYPRPIHPAGLQPTKPLVATSPNPGKDGGTPDSGQELRGNLTGAPGQRLQIQNPLYPVTESSYSAYAIMLLALVVFAVGIVGNLSVMCIVWHSYYLKSAWNSILASLALWDFLVLFFCLPIVIFNEITKQRLLGDVSCRAVPFMEVSSLGVTTFSLCALGIDRFHVATSTLPKVRPIERCQSILAKLAVIWVGSMTLAVPELLLWQLAQEPAPTMGTLDSCIMKPSASLPESLYSLVMTYQNARMWWYFGCYFCLPILFTVTCQLVTWRVRGPPGRKSECRASKHEQCESQLNSTVVGLTVVYAFCTLPENVCNIVVAYLSTELTRQTLDLLGLINQFSTFFKGAITPVLLLCICRPLGQAFLDCCCCCCCEECGGASEASAANGSDNKLKTEVSSSIYFHKPRESPPLLPLGTPC [GPR37L1],148 ± 21
3,MDTGPDQSYFSGNHWFVFSVYLLTFLVGLPLNLLALVVFVGKLRCRPVAVDVLLLNLTASDLLLLLFLPFRMVEAANGMHWPLPFILCPLSGFIFFTTIYLTALFLAAVSIERFLSVAHPLWYKTRPRLGQAGLVSVACWLLASAHCSVVYVIEFSGDISHSQGTNGTCYLEFRKDQLAILLPVRLEMAVVLFVVPLIITSYCYSRLVWILGRGGSHRRQRRVAGLVAATLLNFLVCFGPYNVSHVVGYICGESPVWRIYVTLLSTLNSCVDPFVYYFSSSGFQADFHELLRRLCGLWGQWQQESSMELKEQKGGEEQRADRPAERKTSEHSQGCGTGGQVACAEN [GPR42],798 ± 40
4,MVNLRNAVHSFLVHLIGLLVWQSDISVSPVAAIVTDIFNTSDGGRFKFPDGVQNWPALSIVIIIIMTIGGNILVIMAVSMEKKLHNATNYFLMSLAIADMLVGLLVMPLSLLAILYDYVWPLPRYLCPVWISLDVLFSTASIMHLCAISLDRYVAIRNPIEHSRFNSRTKAIMKIAIVWAISIGVSVPIPVIGLRDEEKVFVNNTTCVLNDPNFVLIGSFVAFFIPLTIMVITYCLTIYVLRRQALMLLHGHTEEPPGLSLDFLKCCKRNTAEEENSANPNQDQNARRRKKKERRPRGTMQAINNERKASKVLGIVFFVFLIMWCPFFITNILSVLCEKSCNQKLMEKLLNVFVWIGYVCSGINPLVYTLFNKIYRRAFSNYLRCNYKVEKKPPVRQIPRVAATALSGRELNVNIYRHTNEPVIEKASDNEPGIEMQVENLELPVNPSSVVSERISSV [HTR2C],974 ± 180
5,MGNRSTADADGLLAGRGPAAGASAGASAGLAGQGAAALVGGVLLIGAVLAGNSLVCVSVATERALQTPTNSFIVSLAAADLLLALLVLPLFVYSEVQGGAWLLSPRLCDALMAMDVMLCTASIFNLCAISVDRFVAVAVPLRYNRQGGSRRQLLLIGATWLLSAAVAAPVLCGLNDVRGRDPAVCRLEDRDYVVYSSVCSFFLPCPLMLLLYWATFRGLQRWEVARRAKLHGRAPRRPSGPGPPSPTPPAPRLPQDPCGPDCAPPAPGLPRGPCGPDCAPAAPSLPQDPCGPDCAPPAPGLPPDPCGSNCAPPDAVRAAALPPQTPPQTRRRRRAKITGRERKAMRVLPVVVGAFLLCWTPFFVVHITQALCPACSVPPRLVSAVTWLGYVNSALNPVIYTVFNAEFRNVFRKALRACC [DRD4],602 ± 92
6,MADAQNISLDSPGSVGAVAVPVVFALIFLLGTVGNGLVLAVLLQPGPSAWQEPGSTTDLFILNLAVADLCFILCCVPFQATIYTLDAWLFGALVCKAVHLLIYLTMYASSFTLAAVSVDRYLAVRHPLRSRALRTPRNARAAVGLVWLLAALFSAPYLSYYGTVRYGALELCVPAWEDARRRALDVATFAAGYLLPVAVVSLAYGRTLRFLWAAVGPAGAAAAEARRRATGRAGRAMLAVAALYALCWGPHHALILCFWYGRFAFSPATYACRLASHCLAYANSCLNPLVYALASRHFRARFRRLWPCGRRRRHRARRALRRVRPASSGPPGCPGDARPSGRLLAGGGQGPEPREGPVHGGEAARGPE [GALR3],2680 ± 290
7,MESSFSFGVILAVLASLIIATNTLVAVAVLLLIHKNDGVSLCFTLNLAVADTLIGVAISGLLTDQLSSPSRPTQKTLCSLRMAFVTSSAAASVLTVMLITFDRYLAIKQPFRYLKIMSGFVAGACIAGLWLVSYLIGFLPLGIPMFQQTAYKGQCSFFAVFHPHFVLTLSCVGFFPAMLLFVFFYCDMLKIASMHSQQIRKMEHAGAMAGGYRSPRTPSDFKALRTVSVLIGSFALSWTPFLITGIVQVACQECHLYLVLERYLWLLGVGNSLLNPLIYAYWQKEVRLQLYHMALGVKKVLTSFLLFLSARNCGPERPRESSCHIVTISSSEFDG [GPR119],702 ± 99
8,MDNVLPVDSDLSPNISTNTSEPNQFVQPAWQIVLWAAAYTVIVVTSVVGNVVVMWIILAHKRMRTVTNYFLVNLAFAEASMAAFNTVVNFTYAVHNEWYYGLFYCKFHNFFPIAAVFASIYSMTAVAFDRYMAIIHPLQPRLSATATKVVICVIWVLALLLAFPQGYYSTTETMPSRVVCMIEWPEHPNKIYEKVYHICVTVLIYFLPLLVIGYAYTVVGITLWASEIPGDSSDRYHEQVSAKRKVVKMMIVVVCTFAICWLPFHIFFLLPYINPDLYLKKFIQQVYLAIMWLAMSSTMYNPIIYCCLNDRFRLGFKHAFRCCPFISAGDYEGLEMKSTRYLQTQGSVYKVSRLETTISTVVGAHEEEPEDGPKATPSSLDLTSNCSSRSDSKTMTESFSFSSNVLS [TACR1],6280 ± 110

# Same assay, conditions: GPCR class: A (Olfactory)
row,Sequence,plasma membrane surface immunostaining intensity
1,MPVGKLVFNQSEPTEFVFRAFTTATEFQVLLFLLFLLLYLMILCGNTAIIWVVCTHSTLRTPMYFFLSNLSFLELCYTTVVVPLMLSNILGAQKPISLAGCGAQMFFFVTLGSTDCFLLAIMAYDRYVAICHPLHYTLIMTRELCTQMLGGALGLALFPSLQLTALIFTLPFCGHHQEINHFLCDVPPVLRLACADIRVHQAVLYVVSILVLTIPFLLICVSYVFITCAILSIRSAEGRRRAFSTCSFHLTVVLLQYGCCSLVYLRPRSSTSEDEDSQIALVYTFVTPLLNPLLYSLRNKDVKGALRSAIIRKAASDAN [OR10Q1],243 ± 67
2,MARENSTFNSDFILLGIFNHSPTHTFLFFLVLAIFSVAFMGNSVMVLLIYLDTQLHTPMYLLLSQLSLMDLMLICTTVPKMAFNYLSGSKSISMAGCATQIFFYTSLLGSECFLLAVMAYDRYTAICHPLRYTNLMSPKICGLMTAFSWILGSTDGIIDVVATFSFSYCGSREIAHFFCDFPSLLILSCSDTSIFEKILFICCIVMIVFPVAIIIASYARVILAVIHMGSGEGRRKAFTTCSSHLLVVGMYYGAALFMYIRPTSDRSPTQDKMVSVFYTILTPMLNPLIYSLRNKEVTRAFMKILGKGKSGE [OR2M3],138 ± 19
3,MDNITWMASHTGWSDFILMGLFRQSKHPMANITWMANHTGWSDFILLGLFRQSKHPALLCVVIFVVFLMALSGNAVLILLIHCDAHLHTPMYFFISQLSLMDMAYISVTVPKMLLDQVMGVNKISAPECGMQMFFYVTLAGSEFFLLATMAYDRYVAICHPLRYPVLMNHRVCLFLSSGCWFLGSVDGFTFTPITMTFPFRGSREIHHFFCEVPAVLNLSCSDTSLYEIFMYLCCVLMLLIPVVIISSSYLLILLTIHGMNSAEGRKKAFATCSSHLTVVILFYGAAIYTYMLPSSYHTPEKDMMVSVFYTILTPVVNPLIYSLRNKDVMGALKKMLTVEPAFQKAME [OR2T4],122 ± 21
4,MGENQTMVTEFLLLGFLLGPRIQMLLFGLFSLFYIFTLLGNGAILGLISLDSRLHTPMYFFLSHLAVVDIAYTRNTVPQMLANLLHPAKPISFAGCMTQTFLCLSFGHSECLLLVLMSYDRYVAICHPLRYSVIMTWRVCITLAVTSWTCGSLLALAHVVLILRLPFSGPHEINHFFCEILSVLRLACADTWLNQVVIFAACVFFLVGPPSLVLVSYSHILAAILRIQSGEGRRKAFSTCSSHLCVVGLFFGSAIIMYMAPKSRHPEEQQKVFFLFYSFFNPTLNPLIYSLRNGEVKGALRRALGKESHS [OR2A1],106 ± 11
5,MLNFTDVTEFILLGLTSRREWQVLFFIIFLVVYIITMVGNIGMMVLIKVSPQLNNPMYFFLSHLSFVDVWFSSNVTPKMLENLLSDKKTITYAGCLVQCFFFIALVHVEIFILAAMAFDRYMAIGNPLLYGSKMSRVVCIRLITFPYIYGFLTSLAATLWTYGLYFCGKIEINHFYCADPPLIKMACAGTFVKEYTMIILAGINFTYSLTVIIISYLFILIAILRMRSAEGRQKAFSTCGSHLTAVIIFYGTLIFMYLRRPTEESVEQGKMVAVFYTTVIPMLNPMIYSLRNKDVKKAMMKVISRSC [OR5M3],120 ± 24

# Same assay, conditions: GPCR class: B
row,Sequence,plasma membrane surface immunostaining intensity
1,MEKLLRLCCWYSWLLLFYYNFQVRGVYSRSQDHPGFQVLASASHYWPLENVDGIHELQDTTGDIVEGKVNKGIYLKEEKGVTLLYYGRYNSSCISKPEQCGPEGVTFSFFWKTQGEQSRPIPSAYGGQVISNGFKVCSSGGRGSVELYTRDNSMTWEASFSPPGPYWTHVLFTWKSKEGLKVYVNGTLSTSDPSGKVSRDYGESNVNLVIGSEQDQAKCYENGAFDEFIIWERALTPDEIAMYFTAAIGKHALLSSTLPSLFMTSTASPVMPTDAYHPIITNLTEERKTFQSPGVILSYLQNVSLSLPSKSLSEQTALNLTKTFLKAVGEILLLPGWIALSEDSAVVLSLIDTIDTVMGHVSSNLHGSTPQVTVEGSSAMAEFSVAKILPKTVNSSHYRFPAHGQSFIQIPHEAFHRHAWSTVVGLLYHSMHYYLNNIWPAHTKIAEAMHHQDCLLFATSHLISLEVSPPPTLSQNLSGSPLITVHLKHRLTRKQHSEATNSSNRVFVYCAFLDFSSGEGVWSNHGCALTRGNLTYSVCRCTHLTNFAILMQVVPLELARGHQVALSSISYVGCSLSVLCLVATLVTFAVLSSVSTIRNQRYHIHANLSFAVLVAQVLLLISFRLEPGTTPCQVMAVLLHYFFLSAFAWMLVEGLHLYSMVIKVFGSEDSKHRYYYGMGWGFPLLICIISLSFAMDSYGTSNNCWLSLASGAIWAFVAPALFVIVVNIGILIAVTRVISQISADNYKIHGDPSAFKLTAKAVAVLLPILGTSWVFGVLAVNGCAVVFQYMFATLNSLQGLFIFLFHCLLNSEVRAAFKHKTKVWSLTSSSARTSNAKPFHSDLMNGTRPGMASTKLSPWDKSSHSAHRVDLSAV [ADGRD1],1550 ± 390

# Same assay, conditions: GPCR class: Taste
row,Sequence,plasma membrane surface immunostaining intensity
1,MLESHLIIYFLLAVIQFLLGIFTNGIIVVVNGIDLIKHRKMAPLDLLLSCLAVSRIFLQLFIFYVNVIVIFFIEFIMCSANCAILLFINELELWLATWLGVFYCAKVASVRHPLFIWLKMRISKLVPWMILGSLLYVSMICVFHSKYAGFMVPYFLRKFFSQNATIQKEDTLAIQIFSFVAEFSVPLLIFLFAVLLLIFSLGRHTRQMRNTVAGSRVPGRGAPISALLSILSFLILYFSHCMIKVFLSSLKFHIRRFIFLFFILVIGIYPSGHSLILILGNPKLKQNAKKFLLHSKCCQ [TAS2R1],212 ± 85
